Test results as given in patent US20240400693A1 (Chugai, published 2024).
Where a chain is given by its changes, count along the chain named. Like-named read-outs stand apart in the source and are kept apart here.

Legend:
[1] = target: T1, HLA-DR on Ba/F3 cells (human, UniProt P01903 26-216; P79483 30-227, limits assumed); test: FACS, Ba/F3 cells; raw MFI
T1 construct: whole, on cells; also called Ba/F3-HLA-DR
T1 MHC II alpha: not shown
T1 MHC II beta: not shown

[2] = target: T2, HLA-DQ5.1 on Ba/F3 cells (human, limits assumed); test: FACS, Ba/F3 cells; raw MFI
T2 construct: whole, on cells; also called Ba/F3-HLA-DQ5.1
T2 MHC II alpha: not shown
T2 MHC II beta: not shown

[3] = target: T3, HLA-DQ6.3 on Ba/F3 cells (human, UniProt P01920 33-230, limits assumed); test: FACS, Ba/F3 cells; raw MFI
T3 construct: whole, on cells; also called Ba/F3-HLA-DQ6.3
T3 MHC II alpha: not shown
T3 MHC II beta: not shown

[4] = target: T4, HLA-DP on Ba/F3 cells (human, UniProt P20036 29-222; P04440 30-225, limits assumed); test: FACS, Ba/F3 cells; raw MFI
T4 construct: whole, on cells; also called Ba/F3-HLA-DP

[5] = target: T5, HLA-DQ2.5 on IHW09023 cells loaded with omega1/2 gliadin peptide (human; wheat); test: cell-based or functional assay
[6] = target: T6, HLA-DQ2.5 on IHW09023 cells loaded with BC hordein peptide (human; barley); test: cell-based or functional assay
[7] = target: T7, HLA-DQ2.5 on IHW09023 cells loaded with gamma 3 gliadin peptide (human; wheat); test: cell-based or functional assay
[8] = target: T8, HLA-DQ2.5 on IHW09023 cells loaded with gamma 1 gliadin peptide (human; wheat); test: cell-based or functional assay
[9] = target: T9, HLA-DQ2.5 on IHW09023 cells loaded with 33mer gliadin peptide (human; wheat); test: cell-based or functional assay
[10] = target: T10, HLA-DQ2.5 on IHW09023 cells loaded with gamma 4a gliadin peptide (human; wheat); test: cell-based or functional assay
[11] = target: T11, HLA-DQ2.5 on IHW09023 cells loaded with gamma 2 gliadin peptide (human; wheat); test: cell-based or functional assay
[12] = target: T12, HLA-DQ2.5 on IHW09023 cells loaded with gamma 4d gliadin peptide (human; wheat); test: cell-based or functional assay
[13] = target: T13, HLA-DQ2.5 on Ba/F3 cells (human, UniProt P01909 24-216, limits assumed); test: FACS, Ba/F3 cells; %MFI: IC17dK 0, DQN0139bb 100
T13 construct: whole, on cells; MHC class II without fused peptide; also called Ba/F3-HLA-DQ2.5

[14] = target: T14, HLA-DQ2.2 on Ba/F3 cells (human, UniProt P01909 24-216, limits assumed); test: FACS, Ba/F3 cells; %MFI: IC17dK 0, DQN0139bb 100
T14 construct: whole, on cells; also called Ba/F3-HLA-DQ2.2
T14 MHC II alpha: not shown
T14 MHC II beta: not shown

[15] = target: T15, HLA-DQ7.3 on Ba/F3 cells (human, UniProt P01909 24-216; P01920 33-230, limits assumed); test: FACS, Ba/F3 cells; %MFI: IC17dK 0, DQN0139bb 100
T15 construct: whole, on cells; also called Ba/F3-HLA-DQ7.3
T15 MHC II alpha: not shown
T15 MHC II beta: not shown

[16] = target: T16, HLA-DQ8 on Ba/F3 cells (human, UniProt P01909 24-216; P01920 33-230, limits assumed); test: FACS, Ba/F3 cells; %MFI: IC17dK 0, DQN0139bb 100
T16 construct: whole, on cells; also called Ba/F3-HLA-DQ8
T16 MHC II alpha: not shown
T16 MHC II beta: not shown

[17] = target: T17, HLA-DQ7.5 on Ba/F3 cells (human, UniProt P01909 24-216; P01920 33-230, limits assumed); test: FACS, Ba/F3 cells; %MFI: IC17dK 0, DQN0139bb 100
T17 construct: whole, on cells; also called Ba/F3-HLA-DQ7.5

[18] = target: HLA-DQ2.2 on HBBB2.2 cells loaded with 33mer gliadin peptide (human; wheat); test: cell-based or functional assay
[19] = target: T5, HLA-DQ2.5 on IHW09023 cells loaded with …; test: cell-based or functional assay; remark: listed apart in the source
[20] = target: T6, HLA-DQ2.5 on IHW09023 cells loaded with …; test: cell-based or functional assay; remark: listed apart in the source
[21] = target: T7, HLA-DQ2.5 on IHW09023 cells loaded with …; test: cell-based or functional assay; remark: listed apart in the source
[22] = target: T8, HLA-DQ2.5 on IHW09023 cells loaded with …; test: cell-based or functional assay; remark: listed apart in the source
[23] = target: T9, HLA-DQ2.5 on IHW09023 cells loaded with …; test: cell-based or functional assay; remark: listed apart in the source
[24] = target: T10, HLA-DQ2.5 on IHW09023 cells loaded with …; test: cell-based or functional assay; remark: listed apart in the source
[25] = target: T11, HLA-DQ2.5 on IHW09023 cells loaded with …; test: cell-based or functional assay; remark: listed apart in the source
[26] = target: T12, HLA-DQ2.5 on IHW09023 cells loaded with …; test: cell-based or functional assay; remark: listed apart in the source

T4 sequence (P20036 29-222 limits assumed, chain 1 of 4, other chains not shown): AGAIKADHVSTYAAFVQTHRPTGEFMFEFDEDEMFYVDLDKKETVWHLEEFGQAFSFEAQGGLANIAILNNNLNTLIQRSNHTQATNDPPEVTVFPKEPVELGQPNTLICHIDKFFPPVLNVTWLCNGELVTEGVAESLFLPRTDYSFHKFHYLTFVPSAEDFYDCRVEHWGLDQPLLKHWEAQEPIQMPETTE
T4 sequence (P04440 30-225 limits assumed, chain 2 of 4, other chains not shown): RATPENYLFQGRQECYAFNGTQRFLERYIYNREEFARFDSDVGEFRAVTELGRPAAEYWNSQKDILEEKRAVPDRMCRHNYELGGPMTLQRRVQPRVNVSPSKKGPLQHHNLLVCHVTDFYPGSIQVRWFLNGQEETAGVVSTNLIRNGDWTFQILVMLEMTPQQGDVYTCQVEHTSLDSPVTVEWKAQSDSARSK

B1: DQN0344H1013/L0620//DQN0385H1270/L0722-F6 (bispecific antibody)
heavy 1: QVQLVESGGGVVQPGRSLRLSCAASGFTFSSAYWMVWVRQAPGQGLEWMGAVYGGSDTTYYAKWTEGRFTISRDTSKNTLYLQMNSLRAEDTAVYYCAREPLNYYYYGELNVWGQGTLVTVSSASTKGPSVFPLAPSSKSTSGGTAALGCLVKDYFPEPVTVSWNSGALTSGVHTFPAVLKSSGLYSLSSVVTVPSSSLGTQTYICNVNHKPSNTKVDKRVEPKSCDKTHTCPPCPAPELRRGPSVFLFPPKPKDTLMISRTPEVTCVVVDVSHEDPEVKFNWYVDGVEVHNAKTKPREEQYNSTYRVVSVLTVLHQDWLNGKEYKCKVSNKALPAPIEKTISKAKGQPREPQVYTLPPSREEMTKNQVSLTCLVKGFYPSDIAVEWESNGQPENNYKTTPPYLDSDGSFFLYSKLTVDKSRWQEGNVFSCSVLHEALHAHYTREELSLSP
light 1: DIQMTQSPSSLSASVGDRVTITCQATENIYSGLAWYQQKPGKAPKLLIYYVSTLAYGIPARFSGSGSGTDFTLTISSLEPEDFAVYYCQTYEDVSAVTFGQGTKVEIKRTVAAPSVFIFPPSDEQLKSGTAEVVCLLNNFYPREAKVQWKVDNALQSGNSEESVTEQDSKDSTYSLSSTLTLSKADYEKHKVYACEVTHQGLSSPVTKSFNRGEC
heavy 2: QVQLVESGGGVVQPGRSLRLSCAASGFTFSEWYFMSWVRQAPGKGLEWVASIDTGSGSIDYAEWVEGRFTISRDNSKNTLYLQMNSLRAEDTAVYYCARDIGIDYNFWGPGTLVTVSSASTKGPSVFPLAPSSKSTSGGTAALGCLVEDYFPEPVTVSWNSGALTSGVHTFPAVLESSGLYSLSSVVTVPSSSLGTKTYICNVNHKPSNTKVDKRVEPKSCDKTHTCPPCPAPELRRGPSVFLFPPKPKDTLMISRTPEVTCVVVDVSHEDPEVKFNWYVDGVEVHNAKTKPREEQYNSTYRVVSVLTVLHQDWLNGKEYKCKVSNKALPAPIEKTISKAKGQPREPQVYTLPPSRKEMTKNQVSLTCLVKGFYPSDIAVEWESNGQPENNYKTTPPYLDSDGSFFLYSKLTVDKSRWQQGNVFSCSVLHEALHAHYTRKELSLSP
light 2: DIQMTQSPSSLSASVGDRVTITCQTTQSISSYLNWYQQKPGQPPKLLIYYASTKAEGIPARFSGSGLGTDFTLTISSLQPEDFAVYYCHYGISKVSFGQGTKVEIKRTVAAPSVFIFPPSDEQLKSGTAKVVCLLNNFYPREAKVQWKVDNALQSGNSKESVTEQDSKDSTYSLSSTLTLSKADYEKHKVYACEVTHQGLSSPVTKSFNRGEC
Q: Does B1 bind [1]?
A: no binding (tested: 0.05 micro g/mL)

Q: Does B1 bind [2]?
A: no binding (tested: 0.05 micro g/mL)

Q: Does B1 bind [3]?
A: no binding (tested: 0.05 micro g/mL)

Q: Does B1 bind [4]?
A: no binding (tested: 0.05 micro g/mL)

Q: What about the “IC50 (ng/mL), ω1 gliadin TCR, 25 µM ω1/2 gliadin” value [5] of the same binder?
A: 2.17 ng/mL

Q: And the “IC50 (ng/mL), ω2 gliadin TCR, 250 nM ω1/2 gliadin” value [5]?
A: 0.22 ng/mL

Q: What about the “IC50 (ng/mL), BC hordein TCR, 250 nM BC hordein” value [6] of the same binder?
A: 9.7 ng/mL

Q: And the “IC50 (ng/mL), γ3 gliadin TCR, 100 µM γ3 gliadin” value [7]?
A: 3.31 ng/mL

Q: And the “IC50 (ng/mL), γ1 gliadin TCR, 250 nM γ1 gliadin” value [8]?
A: 1.03 ng/mL

Q: What about the “IC50 (ng/mL), α1a gliadin TCR, 250 nM 33mer gliadin” value [9] of the same binder?
A: 0.27 ng/mL

Q: And the “IC50 (ng/mL), α1b gliadin TCR, 250 nM 33mer gliadin” value [9]?
A: 1.25 ng/mL

Q: What about the “IC50 (ng/mL), α2 gliadin TCR, 250 nM 33mer gliadin” value [9] of the same binder?
A: 0.33 ng/mL

Q: What about the “IC50 (ng/mL), γ4a gliadin TCR, 25 µM γ4a gliadin” value [10] of the same binder?
A: 1150 ng/mL

Q: What about the “IC50 (ng/mL), γ2 gliadin TCR, 250 nM γ2 gliadin” value [11] of the same binder?
A: 277 ng/mL

Q: What about the “IC50 (ng/mL), γ4d gliadin TCR, 100 µM γ4d gliadin” value [12] of the same binder?
A: 10.1 ng/mL

Q: Does B1 bind [13]?
A: no binding (tested: 0.05 micro g/mL)

Q: Does B1 bind [14]?
A: no binding (tested: 0.05 micro g/mL)

Q: Does B1 bind [15]?
A: no binding (tested: 0.05 micro g/mL)

Q: Does B1 bind [16]?
A: no binding (tested: 0.05 micro g/mL)

Q: Does B1 bind [17]?
A: no binding (tested: 0.05 micro g/mL)

B2: DQN0344H1013/L0620//DQN0385H1270/L0681-F6.v2 (bispecific antibody)
heavy 1: B1 heavy 1 with Y403V
light 1: B1 light 1
heavy 2: B1 heavy 2 with Y398V
light 2: B1 light 2 with Q79E
Q: What does the source list for B2?
A: IC50 (ng/ml)_HLA-DQ2.2, α1a gliadin TCR, 25 µM 33mer gliadin [18]: 1.62 ng/mL; IC50 (ng/ml)_HLA-DQ2.2, α2 gliadin TCR, 1 µM 33mer gliadin [18]: 4.6 ng/mL; IC50 (ng/mL), ω1 gliadin TCR, 25 µM ω1/2 gliadin [19]: 3.19 ng/mL; IC50 (ng/mL), ω2 gliadin TCR, 250 nM ω1/2 gliadin [19]: 0.49 ng/mL; IC50 (ng/mL), BC hordein TCR, 250 nM BC hordein [20]: 25.2 ng/mL; IC50 (ng/mL), γ3 gliadin TCR, 100 µM γ3 gliadin [21]: 4.84 ng/mL; IC50 (ng/mL), γ1 gliadin TCR, 250 nM γ1 gliadin [22]: 5.85 ng/mL; IC50 (ng/mL), α1a gliadin TCR, 250 nM 33mer gliadin [23]: 0.63 ng/mL; IC50 (ng/mL), α1b gliadin TCR, 250 nM 33mer gliadin [23]: 1.42 ng/mL; IC50 (ng/mL), α2 gliadin TCR, 250 nM 33mer gliadin [23]: 0.53 ng/mL; IC50 (ng/mL), γ4a gliadin TCR, 25 µM γ4a gliadin [24]: 1980 ng/mL; IC50 (ng/mL), γ2 gliadin TCR, 250 nM γ2 gliadin [25]: 280 ng/mL; IC50 (ng/mL), γ4d gliadin TCR, 100 µM γ4d gliadin [26]: 27.8 ng/mL
